± gives the standard deviation of the averaged measurements.
Tested on: ATP
Test: switch fluorescence ratio, 500 uM ATP over buffer (Cy3 cluster intensity, sum of 5 cycles each) (fold (ratio)); higher = stronger signal-on switching upon ATP binding; sequences stand for … in TCGTCGGCAGCGTCAGATGTGTATAAGAGACAGTTTTTTTTTTTTTTTTTTTTTTTTT…TC
Settings: aptamer strand: ATP DNA aptamer (quencher-CACCTGGGGGAGTATTGCGGAGGAAGG + anchor), 100 nM annealed; ATP concentration: 500 uM
Method in brief: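 Cy3-labelled switching-strand clusters on a modified Illumina MiSeq flow-cell were annealed to 100 nM quencher-labelled ATP aptamer, imaged in selection buffer, then imaged after 15 min with 500 uM ATP at 22 °C. Five buffer/ATP cycles ran, with NaOH stripping and re-annealing between them. The fluorescence ratio is summed target-cycle over summed buffer-cycle Cy3 intensity per cluster, averaged per switch-domain sequence. Clusters outside 100-1000 RFU were excluded.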
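Also: ATP exposure 15 min at 22 °C before imaging.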

Row | Sequence | switch fluorescence ratio
1 | CTACCGCCTA | 1.39 ± 0.048
2 | CTACGGGATT | 1.33 ± 0.43
3 | CTACTCCGTT | 1.29 ± 0.068
4 | CTACTGAAGG | 0.983 ± 0.014
5 | CTACTTATTT | 1.02 ± 0.024
6 | CTACTTGATA | 0.978 ± 0.017
7 | CTAGATTTGA | 1 ± 0.024
8 | CTAGCATCCG | 1.03 ± 0.016
9 | CTAGGAGGGA | 0.98 ± 0.013
10 | CTAGGATGTG | 0.997 ± 0.031
11 | CTAGGATTGA | 0.992 ± 0.041
12 | CTAGGCTTTT | 1.02 ± 0.079
13 | CTAGGGAGAG | 0.9912 ± 0.0069
14 | CTAGGGGATT | 1.02 ± 0.011
15 | CTAGGGGCTG | 0.946 ± 0.025
16 | CTAGGGGGTA | 0.971 ± 0.035
17 | CTAGGGGGTG | 1.03 ± 0.062
18 | CTAGGGGTTC | 1.01 ± 0.046
19 | CTAGGGTTAT | 1.006 ± 0.0025
20 | CTAGGTGTGG | 1.04 ± 0.057
21 | CTAGTAGAAG | 1.01 ± 0.016
22 | CTAGTATGTT | 0.979 ± 0.02
23 | CTAGTCAAGA | 1.027 ± 0.0066
24 | CTAGTCAGGT | 1.018 ± 0.0012
25 | CTAGTCTTTT | 0.982 ± 0.031
26 | CTAGTTAGGC | 0.9844 ± 0.0091

Row | Sequence | switch fluorescence ratio
27 | CTAGTTTGGA | 1 ± 0.011
28 | CTATAACGGG | 0.981 ± 0.0067
29 | CTATAAGTCT | 1.022 ± 0.0033
30 | CTATAATGTT | 0.9949 ± 0.0059
31 | CTATACGGGG | 0.976 ± 0.025
32 | CTATAGGAGA | 1.01 ± 0.044
33 | CTATATAAAT | 0.997 ± 0.059
34 | CTATATAGGT | 1.014 ± 0.0069
35 | CTATCCGGAC | 1.25 ± 0.014
36 | CTATCCTATA | 0.988 ± 0.022
37 | CTATCGGGTA | 0.9966 ± 0.0097
38 | CTATCTGTAG | 0.994 ± 0.03
39 | CTATGCAATT | 3.33 ± 0.29
40 | CTATGCGTTT | 0.989 ± 0.025
41 | CTATGGATAC | 1.61 ± 0.18
42 | CTATGGGGGT | 0.997 ± 0.024
43 | CTATGGGTCC | 1.02 ± 0.026
44 | CTATGTATGT | 1.01 ± 0.022
45 | CTATGTATTT | 1.002 ± 0.0011
46 | CTATGTGATT | 1.025 ± 0.0017
47 | CTATTGAAGT | 0.9838 ± 0.0073
48 | CTATTGGTTT | 0.9746 ± 0.0021
49 | CTATTGTGGA | 0.999 ± 0.019
50 | CTATTTTGGT | 0.9784 ± 0.0079
51 | CTCAAAAACA | 1.02 ± 0.028
52 | CTCAAGGGGC | 1.14 ± 0.11

Row | Sequence | switch fluorescence ratio
53 | CTCAATACTT | 1.786 ± 0.0034
54 | CTCACCATGA | 1.03 ± 0.035
55 | CTCACTTGGG | 1.024 ± 0.0012
56 | CTCAGAATAG | 1.37 ± 0.075
57 | CTCAGAATAT | 1.046 ± 0.0086
58 | CTCAGAGTTT | 1 ± 0.012
59 | CTCAGGAGGG | 0.997 ± 0.047
60 | CTCAGGCAAT | 2.61 ± 0.45
61 | CTCAGGGGGT | 0.9759 ± 0.007
62 | CTCAGTAGTT | 1.018 ± 0.0053
63 | CTCAGTTTCT | 1.02 ± 0.03
64 | CTCATAACAG | 0.996 ± 0.015
65 | CTCATAATTT | 0.993 ± 0.037
66 | CTCATATAGA | 0.991 ± 0.045
67 | CTCATCGGTC | 1.02 ± 0.035
68 | CTCATCGTTC | 0.99555 ± 0.00034
69 | CTCCAAAGCG | 1.19 ± 0.032
70 | CTCCATCGGG | 1.31 ± 0.033
71 | CTCCCTTCGA | 1.17 ± 0.036
72 | CTCCGATGAT | 3.03 ± 0.62
73 | CTCCGTGGGA | 1.9 ± 0.68
74 | CTCCTACAGC | 1.32 ± 0.2
75 | CTCCTAGTTT | 1.03 ± 0.02
76 | CTCCTCTACC | 1.64 ± 0.048
77 | CTCCTTTTAT | 1.03 ± 0.029
78 | CTCGAAAAAA | 1.05 ± 0.014

Row | Sequence | switch fluorescence ratio
79 | CTCGAAGCG | 1.04 ± 0.034
80 | CTCGACGGGG | 0.975 ± 0.035
81 | CTCGATTTAT | 0.9951 ± 0.0086
82 | CTCGCCGCGG | 1.08 ± 0.038
83 | CTCGCCGGGG | 1.06 ± 0.013
84 | CTCGCTGCGT | 1.024 ± 0.0082
85 | CTCGGCGCTT | 1.05 ± 0.02
86 | CTCGGCGGAG | 1.026 ± 0.0082
87 | CTCGGCTGGT | 1.01 ± 0.019
88 | CTCGGGGGAT | 1.05 ± 0.1
89 | CTCGGGGTGT | 1.02 ± 0.018
90 | CTCGGGTATG | 0.9791 ± 0.0043
91 | CTCGGTTCTT | 0.975 ± 0.019
92 | CTCGTAATCT | 1.571 ± 0.007
93 | CTCGTAGGGA | 1.01 ± 0.027
94 | CTCGTTGCTT | 1.03 ± 0.037
95 | CTCGTTTTGA | 0.975 ± 0.023
96 | CTCTACGCCG | 0.9875 ± 0.0053
97 | CTCTATCAAT | 1.254 ± 0.0064
98 | CTCTCAAATG | 1.03 ± 0.045
99 | CTCTCGGCCG | 1.03 ± 0.12
100 | CTCTCTAGCT | 1.035 ± 0.01
101 | CTCTGAGGGG | 1.16 ± 0.1
102 | CTCTGCTCGC | 4.15 ± 0.55
103 | CTCTGGGCGG | 0.988 ± 0.039
104 | CTCTGGGGGC | 1.1 ± 0.062

Row | Sequence | switch fluorescence ratio
105 | CTCTGTACAG | 1.01 ± 0.018
106 | CTGAAGGCCC | 1.02 ± 0.019
107 | CTGACAGATT | 1.11 ± 0.12
108 | CTGACGAAGG | 1.05 ± 0.029
109 | CTGACGGATT | 1.2 ± 0.054
110 | CTGACGTAAG | 1.26 ± 0.29
111 | CTGAGAACTT | 0.983 ± 0.055
112 | CTGAGAGTAC | 1.05 ± 0.07
113 | CTGAGAGTAT | 1 ± 0.025
114 | CTGAGGCACG | 1.09 ± 0.068
115 | CTGAGGGAGA | 1.04 ± 0.03
116 | CTGAGGGGT | 1.05 ± 0.037
117 | CTGAGGGTAT | 1.006 ± 0.0098
118 | CTGAGTAGTT | 1.01 ± 0.018
119 | CTGAGTATAG | 1.01 ± 0.023
120 | CTGAGTCAAT | 2.23 ± 0.042
121 | CTGAGTCGGA | 0.983 ± 0.033
122 | CTGAGTGATG | 1.01 ± 0.02
123 | CTGAGTTGGG | 0.9793 ± 0.0042
124 | CTGATAGGGA | 1.01 ± 0.019
125 | CTGATATGCG | 0.997 ± 0.023
126 | CTGATGTCTA | 0.977 ± 0.022
127 | CTGATTAGGA | 0.989 ± 0.017
128 | CTGCAATAGA | 4.41 ± 0.16
129 | CTGCATAGGT | 1.31 ± 0.38
130 | CTGCATCAGT | 1.04 ± 0.011

Row | Sequence | switch fluorescence ratio
131 | CTGCGCAAGG | 6.27 ± 0.014
132 | CTGCGGTAAA | 0.96953 ± 0.00082
133 | CTGCTCTGTG | 0.968 ± 0.014
134 | CTGCTGGGGT | 1.04 ± 0.018
135 | CTGGAAAACG | 1.008 ± 0.0046
136 | CTGGAAAGGG | 0.96 ± 0.019
137 | CTGGAAGGTG | 1.811 ± 0.017
138 | CTGGACCGGC | 0.967 ± 0.014
139 | CTGGAGGATA | 1.12 ± 0.014
140 | CTGGAGGGGG | 1.01 ± 0.032
141 | CTGGATAGAA | 1.01 ± 0.033
142 | CTGGATGGTG | 0.98 ± 0.051
143 | CTGGCAACGA | 1.06 ± 0.013
144 | CTGGCACGGA | 1 ± 0.063
145 | CTGGCATGGT | 1 ± 0.011
146 | CTGGCATTTC | 1.37 ± 0.047
147 | CTGGCCGTTT | 1.016 ± 0.01
148 | CTGGCTAGGT | 0.988 ± 0.057
149 | CTGGGAACGG | 0.965 ± 0.052
150 | CTGGGAGATG | 0.99088 ± 0.00019
151 | CTGGGAGCAC | 1.89 ± 0.15
152 | CTGGGATTAT | 0.9755 ± 0.0074
153 | CTGGGCAGAG | 1.02 ± 0.043

From the supplement of paper PMC10126150
